# In patent US20250152742A1, “COMPOSITIONS AND METHODS FOR NEUROLOGICAL DISEASES” (Trames Bio, Inc., priority 2022, published 2025):
# B1: CODA325: engineered receptor: L131G in SEQ ID NO: 33 (protein)
# chain: MRCSPGGVWLALAASLLHVSLQGEFQRKLYKELVKNYNPLERPVANDSQPLTVYFSLSLLQIMDVDEKNQVLTTNIWLQMSWTDHYLQWNVSEYPGVKTVRFPDGQIWKPDILLYNSADERFDATFHTNVGVNSSGHCQYLPPGIFKSSCPMDLKNFPMDVQTCKLKFGSWSYGGWSLDLQMQEADISGYIPNGEWDLVGIPGKRSERFYECCKEPYPDVTFTVTMRRRMGYYLIQMYIPSLLIVILSWISFWINMDAAPARVGLGITTVLTMTTQSSGSRASLPKVSYVKAIDIWMAVCLLFVFSALLEYAAVNFVSRQHKELLRFRRKRRHHKSPMLNLFQEDEAGEGRFNFSAYGMGPACLQAKDGISVKGANNSNTTNPPPAPSKSPEEMRKLFIQRAKKIDKISRIGFPMAFLIFNMFYWIIYKIVRREDVHNQ
# modifications: synthetic sequence of chimeric LGIC
# Tested on: engineered chimeric receptor SEQ ID NO: 33 and its mutants (human α7-nAChR ligand binding domain / human GlyRα1 ion pore domain) in Lenti-X 293T cells
# Assay: YFP fluorescence quenching anion reporter plate reader assay (percent quench, EC50)
# Format: cell-based
# Conditions: for YFP fluorescence quenching using CNL001 (percent quench): receptor named in row; for YFP fluorescence quenching using Varenicline, 3 nM var: ligand Varenicline 3 nM; for YFP fluorescence quenching using Varenicline, 30 nM var: ligand Varenicline 30 nM; for YFP fluorescence quenching using Varenicline, 300 nM var: ligand Varenicline 300 nM; for YFP fluorescence quenching using Varenicline, 500 nM var: ligand Varenicline 500 nM; for YFP fluorescence quenching using Varenicline, 1 uM var: ligand Varenicline 1 uM
# Text: To screen these mutant LGICs for those having novel response profiles to ligands, an anion reporter assay was developed to assess the function of the LGICs in a high throughput format. In this assay, cells expressing a YFP reporter whose fluorescence is quenched in the presence of anion are transfected with DNA encoding the channel of interest. Upon exposure to ligand, channels that are activated will flux anion, resulting in a dose-dependent quench of the YFP that can be detected on a plate reader. The greater the quench signal (i.e., the more positive the value), the higher the ligand activity on the receptor is.
# Lenti-X 293T cells (LX293T, Clontech) were maintained in DMEM containing 10% FBS and 1% penicillin/streptomycin (Invitrogen). […] Two days before assay, cells were split at a density of 20,000 cells/well in a 96-well tissue culture plate coated with poly-d lysine (Thermo Scientific). The next day, the cells were transiently transfected with 0.1 μg of DNA per well using standard Fugene protocol (Promega). On the day of assay, cells were washed 2 times in 1X extracellular solution (1X ECS: 140 mM NaCl, 5 mM KCl, 1 mM MgCl2, 2 mM CaCl2, 10 mM HEPES, 10 mM glucose, pH 7.2, mOsms 300). After the last wash, 100 μL of 1X ECS was added to the wells and the plate was incubated at 37° C. for 30 min. While incubating the plate, the drugs were diluted to a 2X concentration in 1X ECS-Nal (same components as 1X ECS except the 140 mM NaCl was replaced by 140 mM Nal). The plates were then read on a Flexstation3 (Molecular Devices). Each well, 8 wells at a time, of the plate is read for 2 min using a Flexstation3 (Molecular Devices) as follows: 1) a baseline YFP fluorescence is read for 17 sec, 2) 100 μL of ligand is added, and 3) the changes in YFP fluorescence are then measured every 1.3 sec for 1 minute and 43 seconds. The percent quench is calculated from the average fluorescence of the last 10 seconds of the read divided by the baseline average of the first 15 seconds prior to the ligand addition.
# FIGS. 1A-1J provide heat maps of the percent quench of YFP fluorescence following stimulation by various doses of either acetylcholine or the non-native ligand as indicated in the Figures. CODA71 (SEQ ID NO: 33) was used as a control, and CODA75 (SEQ ID NO: 29, a non-responding chimeric engineered receptor) was used as the negative control. Quenching of the fluorescence signal, as indicated by blue shaded cells, indicate the level of engineered receptor activation by the non-native ligand at that concentration.
molecule,measurement,setting,value
B1,YFP fluorescence quenching using CNL001 (percent quench),"1 nM CNL001, first column so headed",74.429%
same,YFP fluorescence quenching using CNL001 (percent quench),"1 nM CNL001, second column so headed",78.715%
same,YFP fluorescence quenching using TC-5619/Bradanicline (percent quench),3 nM brd (TC-5619/Bradanicline),68.45%
same,YFP fluorescence quenching using CNL001 (percent quench),"10 nM CNL001, first column so headed",79.033%
same,YFP fluorescence quenching using CNL001 (percent quench),"10 nM CNL001, second column so headed",79.322%
same,YFP fluorescence quenching using TC-6683 (percent quench),30 nM TC-6683,−21.27%
same,YFP fluorescence quenching using TC-5619/Bradanicline (percent quench),30 nM brd (TC-5619/Bradanicline),76.95%
same,YFP fluorescence quenching using CNL001 (percent quench),"50 nM CNL001, first column so headed",79.966%
same,YFP fluorescence quenching using CNL001 (percent quench),"50 nM CNL001, second column so headed",80.091%
same,YFP fluorescence quenching using ABT-126 (percent quench),50 nM abt (ABT-126),−17.39%
same,YFP fluorescence quenching using CNL001 (percent quench),"100 nM CNL001, first column so headed",81%
same,YFP fluorescence quenching using CNL001 (percent quench),"100 nM CNL001, second column so headed",79.701%
same,YFP fluorescence quenching (percent quench),100 nM CNL002,45.62%
same,YFP fluorescence quenching using ABT-126 (percent quench),100 nM abt (ABT-126),6.89%
same,YFP fluorescence quenching using AZD-0328 (percent quench),100 nM azd0328,79.75%
same,YFP fluorescence quenching using TC-6683 (percent quench),300 nM TC-6683,−18.33%
same,YFP fluorescence quenching using ABT-126 (percent quench),300 nM abt (ABT-126),38.65%
same,YFP fluorescence quenching using AZD-0328 (percent quench),300 nM azd0328,80.62%
same,YFP fluorescence quenching using TC-5619/Bradanicline (percent quench),300 nM brd (TC-5619/Bradanicline),77.1%
same,YFP fluorescence quenching using CNL001 (percent quench),"1 uM CNL001, first column so headed",79.289%
same,YFP fluorescence quenching using CNL001 (percent quench),"1 uM CNL001, second column so headed",80.581%
same,YFP fluorescence quenching (percent quench),1 uM CNL002,74.72%
same,YFP fluorescence quenching using ABT-126 (percent quench),1 uM abt (ABT-126),45.82%
same,YFP fluorescence quenching using TC-6683 (percent quench),3 uM TC-6683,−7.03%
same,YFP fluorescence quenching (percent quench),10 uM ach (acetylcholine),5.66%
same,YFP fluorescence quenching (percent quench),30 uM CNL002,77.4%
same,YFP fluorescence quenching using TC-6683 (percent quench),30 uM TC-6683,56.84%
same,YFP fluorescence quenching using AZD-0328 (percent quench),30 uM azd0328,80.19%
same,YFP fluorescence quenching using TC-6683 (percent quench),100 uM TC-6683,64.51%
same,YFP fluorescence quenching (percent quench),100 uM ach (acetylcholine),74.07%
same,YFP fluorescence quenching (percent quench),1 mM ach (acetylcholine),62.65%
same,YFP fluorescence quenching (percent quench),3 mM ach (acetylcholine),69.49%
same,"YFP fluorescence quenching using Facinicline, 30 nM fac",ligand Facinicline 30 nM,75.75
same,"YFP fluorescence quenching using Facinicline, 300 nM fac",ligand Facinicline 300 nM,78.01
same,"YFP fluorescence quenching using Facinicline, 30 uM fac",ligand Facinicline 30 uM,76.61
same,"YFP fluorescence quenching using TC-6987, 1 uM tc6987",ligand TC-6987 1 uM,64.59
same,"YFP fluorescence quenching using TC-6987, 10 uM tc6987",ligand TC-6987 10 uM,76.28
same,"YFP fluorescence quenching using TC-6987, 500 uM tc6987",ligand TC-6987 500 uM,70.95
same,"YFP fluorescence quenching using Varenicline, 3 nM var",first column,−12.241
same,"YFP fluorescence quenching using Varenicline, 3 nM var",second column,−9.415
same,"YFP fluorescence quenching using Varenicline, 30 nM var",first column,75.334
same,"YFP fluorescence quenching using Varenicline, 30 nM var",second column,72.278
same,"YFP fluorescence quenching using Varenicline, 300 nM var",first column,78.305
same,"YFP fluorescence quenching using Varenicline, 300 nM var",second column,77.83
same,"YFP fluorescence quenching using Varenicline, 500 nM var",first column,75.936
same,"YFP fluorescence quenching using Varenicline, 500 nM var",second column,76.788
same,"YFP fluorescence quenching using Varenicline, 1 uM var",first column,77.805
same,"YFP fluorescence quenching using Varenicline, 1 uM var",second column,77.352
